Data as given in paper PMC11259713, “Splicing factor hnRNPA1 regulates alternative splicing of LOXL2 to enhance the production of LOXL2Δ13”.

Assays:
Details in all cases: protein: recombinant; tags: His (pET-32a vector)
hnRNPA1-His (hnRNPA1A) [1] = target: T1, hnRNPA1-His (hnRNPA1A) (UniProt P09651-2 1-320); test: BLI; RNA on streptavidin probe; lower KD than oligo2 but less protein bound; value only in figure; BLI: PBS, 0.002% Tween-20, 0.02% BSA, temperature not stated; pull-down: lysate in 150 mM KCl, 0.5 mM DTT, 0.5% NP-40, 25 mM Tris-HCl pH 7.5, 4 C overnight
T1 sequence (P09651 other isoform, or with tags, fused parts or gaps): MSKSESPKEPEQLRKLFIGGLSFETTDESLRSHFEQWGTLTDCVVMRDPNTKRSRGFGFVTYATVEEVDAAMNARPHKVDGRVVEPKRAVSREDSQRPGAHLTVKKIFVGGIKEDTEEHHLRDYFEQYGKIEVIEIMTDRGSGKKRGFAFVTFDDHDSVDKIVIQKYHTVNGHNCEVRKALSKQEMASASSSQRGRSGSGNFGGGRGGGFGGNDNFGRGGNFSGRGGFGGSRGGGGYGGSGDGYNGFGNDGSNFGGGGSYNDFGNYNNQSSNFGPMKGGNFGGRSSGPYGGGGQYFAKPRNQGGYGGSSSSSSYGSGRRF

S91D/S95D-His = S91D/S95D-His (UniProt P09651-2 1-320, S91D;S95D); test: BLI; similar or stronger affinity than WT but reduced binding amount; KD only in figure; BLI: PBS, 0.002% Tween-20, 0.02% BSA, temperature not stated; pull-down: lysate in 150 mM KCl, 0.5 mM DTT, 0.5% NP-40, 25 mM Tris-HCl pH 7.5, 4 C overnight
S91D/S95D-His, sequence (P09651 other isoform, or with tags, fused parts or gaps S91D;S95D | S91D S95D S91D S95D): as the sequence (P09651 other isoform, or with tags, fused parts or gaps) above, with S91D, S95D counted along it

hnRNPA1-His (hnRNPA1A) [2] = target: T1, hnRNPA1-His (hnRNPA1A); test: BLI; protein on Ni-NTA probe; KD only in figure; BLI: PBS, 0.002% Tween-20, 0.02% BSA, temperature not stated; pull-down: lysate in 150 mM KCl, 0.5 mM DTT, 0.5% NP-40, 25 mM Tris-HCl pH 7.5, 4 C overnight
S91A/S95A-His = S91A/S95A-His (UniProt P09651-2 1-320, S91A;S95A); test: BLI; protein on Ni-NTA probe; affinity and amount higher than WT; KD only in figure; BLI: PBS, 0.002% Tween-20, 0.02% BSA, temperature not stated; pull-down: lysate in 150 mM KCl, 0.5 mM DTT, 0.5% NP-40, 25 mM Tris-HCl pH 7.5, 4 C overnight
S91A/S95A-His, sequence (P09651 other isoform, or with tags, fused parts or gaps S91A;S95A | S91A S95A S91A S95A): as the sequence (P09651 other isoform, or with tags, fused parts or gaps) above, with S91A, S95A counted along it

hnRNPA1-His (hnRNPA1A) [3] = target: T1, hnRNPA1-His (hnRNPA1A); test: pull-down; purified protein; BLI: PBS, 0.002% Tween-20, 0.02% BSA, temperature not stated; pull-down: lysate in 150 mM KCl, 0.5 mM DTT, 0.5% NP-40, 25 mM Tris-HCl pH 7.5, 4 C overnight

Binder: ACAACUGCCACACCGGUAAGGCCAGGCCGC (ssRNA) [oligo2-U13C+A14C]
- binding result (hnRNPA1-His (hnRNPA1A) [1]): binds

Binder: ACAACUGCCACAUAGGUAAGGCCAGGCCGC (ssRNA) [oligo2]
- binding result (S91D/S95D-His): binds
- binding result (hnRNPA1-His (hnRNPA1A) [2]): binds
- binding result (S91A/S95A-His): binds

Binder: AGCAGCCUCCUCUGCCCUGCUUCUCCCUAGGUUGUU (ssRNA) [oligo1]
- binding result (hnRNPA1-His (hnRNPA1A) [3]): binds
